The values below come from publication PMC5072837.

Several values for one entry are separate records, joined by “and”; a condition that tells them apart may be missing. Identical values can stand only once.

Test [1] addresses FliD lacking the C-terminal coiled-coil domain (FliD_(1–405)) from the P. aeruginosa PAO1 strain (Pseudomonas aeruginosa PAO1) (UniProt Q9K3C5). Nature of the test: cross-linking; about 0.4 mg/mL protein, 20 mM EDC and 20 mM NHS, various time points; silver-stained SDS-PAGE.
The target in test [2] is FliD lacking the N-terminal coiled-coil domain (FliD_(78–474)) from the P. aeruginosa PAO1 strain (Pseudomonas aeruginosa PAO1) (UniProt Q9K3C5). Described as above.
Test [3] has as its target FliD_(1–474(I167C/D253C)) produced by Pseudomonas (complementation strain ΔfliD/fliD_(1–474(I167C/D253C))) (Pseudomonas aeruginosa PAO1) (UniProt Q9K3C5). Nature of the test: Western blot after non-reducing SDS-PAGE; flagella sheared off live bacteria, supernatant concentrated; detected with anti-FliD scFv-Fc SH1579-B7. (In general: In western blotting, separated proteins are transferred to a membrane and probed.)

In test [4] the target is FliD_(78–405) from the P. aeruginosa PAO1 strain, made as a GST fusion and cleaved (Pseudomonas aeruginosa PAO1) (UniProt Q9K3C5). Nature of the test: negative stain EM with class averaging; 2% uranyl acetate, about 3500 particles, class averages in EMAN2.
Test [5] shares this target. Nature of the test: cross-linking; about 0.4 mg/mL protein, 20 mM EDC and 20 mM NHS, various time points; silver-stained SDS-PAGE.
The target is the same in test [6]. Nature of the test: AUC; sedimentation velocity, 20°C, 30 mM Tris, 80 mM NaCl, pH 8.0; 295 μM FliD78–405, 124 μM FliD78–273, 168 μM FliD1–474.
For test [7] the target is unchanged. Nature of the test: SAXS; 30 mM Tris pH 8.0, 80 mM NaCl; three concentrations of each protein; envelopes by DAMMIF with superimposed crystal structures.
Test [8] has the same target. Nature of the test: AUC; sedimentation velocity, 20°C, 20 mM sodium citrate, 80 mM NaCl, pH 5.0; 325 μM FliD78–405, 124 μM FliD78–273, 168 μM FliD1–474.
For test [9], the target named is FliD_(78–405) from the P. aeruginosa PAO1 strain, with N-terminal His6-tag (crystallized construct) (Pseudomonas aeruginosa PAO1) (UniProt Q9K3C5). Nature of the test: crystal structure; His6-FliD78–405 crystals grown in 0.8 M NaK Tartrate, 0.1 M Hepes pH 7.5; 2.2 Å; P6 space group.
Test [10] deals with full-length FliD_(1–474) from the P. aeruginosa PAO1 strain (Pseudomonas aeruginosa PAO1) (UniProt Q9K3C5). Nature of the test: AUC; sedimentation velocity, 4 μM FliD1–474 in 30 mM Tris, 80 mM NaCl, pH 8.0.
For test [11] the target is unchanged. Kind of test: cross-linking; about 0.4 mg/mL protein, 20 mM EDC and 20 mM NHS, various time points; silver-stained SDS-PAGE.
Test [12] shares this target. Kind of test: AUC; sedimentation velocity, 20°C, 30 mM Tris, 80 mM NaCl, pH 8.0; 295 μM FliD78–405, 124 μM FliD78–273, 168 μM FliD1–474.
For test [13] the target is unchanged. Nature of the test: AUC; sedimentation velocity, 20°C, 20 mM sodium citrate, 80 mM NaCl, pH 5.0; 325 μM FliD78–405, 124 μM FliD78–273, 168 μM FliD1–474.
Test [14] deals with head domain-only FliD (FliD_(78–273)) from the P. aeruginosa PAO1 strain (Pseudomonas aeruginosa PAO1) (UniProt Q9K3C5). Kind of test: cross-linking; about 0.4 mg/mL protein, 20 mM EDC and 20 mM NHS, various time points; silver-stained SDS-PAGE.
Test [15] shares this target. Nature of the test: SAXS; 30 mM Tris pH 8.0, 80 mM NaCl; three concentrations of each protein; envelopes by DAMMIF with superimposed crystal structures.
Test [16] shares this target. Nature of the test: AUC; sedimentation velocity, 20°C, 20 mM sodium citrate, 80 mM NaCl, pH 5.0; 325 μM FliD78–405, 124 μM FliD78–273, 168 μM FliD1–474.
For test [17], the target named is stable hexameric full-length FliD mutant FliD_(1–474(I167C/D253C)), purified recombinant protein (Pseudomonas aeruginosa PAO1) (UniProt Q9K3C5). Kind of test: SDS-PAGE under non-reducing conditions; purified FliD1–474(I167C/D253C), reducing against non-reducing conditions.
Test [18] has the same target. Kind of test: SAXS; 30 mM Tris pH 8.0, 80 mM NaCl; three concentrations of each protein; envelopes by DAMMIF with superimposed crystal structures.

Broadly, the stoichiometry N is a count of units in the complex or per binding partner. With “FliD lacking the C-terminal coiled-coil domain (FliD_(1–405)) from the P. aeruginosa PAO1 strain (from UniProt Q9K3C5 1-405) (domain or fragment)”, the stoichiometry N in test [1] was 2.
For “FliD lacking the N-terminal coiled-coil domain (FliD_(78–474)) from the P. aeruginosa PAO1 strain (from UniProt Q9K3C5 78-474) (domain or fragment)”, the stoichiometry N in test [2] amounted to 2.
In [3], “FliD_(1–474(I167C/D253C)) produced by Pseudomonas (complementation strain ΔfliD/fliD_(1–474(I167C/D253C))) (from UniProt Q9K3C5 1-474) (natural protein)” registered a stoichiometry N of 6.
On to “FliD_(78–405) from the P. aeruginosa PAO1 strain, made as a GST fusion and cleaved (from UniProt Q9K3C5 78-405) (domain or fragment)”, for which the stoichiometry N was 6 in test [4]; less than 12 in test [5]; 12 in [6]; 12 in test [7]; 12 in [8].
Consider “FliD_(78–405) from the P. aeruginosa PAO1 strain, with N-terminal His6-tag (crystallized construct) (from UniProt Q9K3C5 78-405) (domain or fragment)”, for which, in [9], the stoichiometry N is 6 and 12.
As to “full-length FliD_(1–474) from the P. aeruginosa PAO1 strain (from UniProt Q9K3C5 1-474) (natural protein)”, the stoichiometry N is 2 in [10]; less than 6 in [11]; 4 and 6 in test [12]; 4 and 6 in [13].
As for “head domain-only FliD (FliD_(78–273)) from the P. aeruginosa PAO1 strain (from UniProt Q9K3C5 78-273) (domain or fragment)”, the stoichiometry N in [14], in test [15] and in test [16] was 2 each time.
As for “stable hexameric full-length FliD mutant FliD_(1–474(I167C/D253C)), purified recombinant protein (from UniProt Q9K3C5 1-474) (natural protein)”, the stoichiometry N in test [17] and in [18] was 6 in each case.
